Assays:
[1] = target: human cytoplasmic dynein-1 complex (recombinant, SNAPf tag on the heavy chain) (human) (UniProt Q14204); assay: single-molecule TIRF co-localisation on microtubules; Alexa647-BICD2N (10x) and TMR-dynein (20 nM in the assembly mix, 1 in 2 dilution) with EB1, dynactin (2x) and LIS1 (20x) on dynamic microtubules
[2] = target: human cytoplasmic dynein-1 complex (recombinant, SNAPf tag on the heavy chain) (human) (UniProt Q14204)
[3] = target: native dynactin complex purified from pig brain (pig (purified from pig brain))
[4] = target: microtubules polymerised from porcine tubulin (porcine); assay: single-molecule TIRF microscopy of binding to microtubules; dynein (100 nM in the assembly mix, 1 in 20 dilution) alone or with a 20x or 300x molar excess of LIS1 on immobilised taxol/GMPCPP-stabilised microtubules, without EB1 and dynactin; 2.5 mM ATP

SNAPf::BICD2N (residues 1-400 of mouse Bicaudal-D2 with an N-terminal SNAPf tag), sequence (Q921C5 1-400): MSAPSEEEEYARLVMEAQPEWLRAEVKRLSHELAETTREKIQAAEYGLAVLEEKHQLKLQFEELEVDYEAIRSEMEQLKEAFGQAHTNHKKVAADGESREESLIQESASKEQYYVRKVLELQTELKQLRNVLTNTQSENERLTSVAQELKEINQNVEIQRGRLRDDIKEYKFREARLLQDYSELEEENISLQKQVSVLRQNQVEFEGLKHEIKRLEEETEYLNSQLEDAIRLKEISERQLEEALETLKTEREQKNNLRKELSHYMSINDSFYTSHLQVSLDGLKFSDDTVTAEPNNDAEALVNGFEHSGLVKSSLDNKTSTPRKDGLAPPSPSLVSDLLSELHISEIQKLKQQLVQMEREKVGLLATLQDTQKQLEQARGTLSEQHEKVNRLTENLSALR

percent of plus-end tracking events of TMR-dynein with Alexa647-BICD2N signal [1] [%] | proportion of microtubule-associated dynein complexes in minus end-directed motion with dynactin and BICD2N, without (45%) and with LIS1 (70%) [2] [%] | plus-end tracking of Alexa647-dynein on growing microtubules with EB1 and dynactin (TIRF): maximal duration of tracking events [3] [s] | plus-end tracking of Alexa647-dynein on growing microtubules with EB1 and dynactin (TIRF): mean duration of tracking events [3] [s] | fold increase of the landing rate on the lattice with a 300-fold molar excess of LIS1 against no LIS1 [4] [fold] | Substance
40 | 70 |  |  |  | SNAPf::BICD2N (residues 1-400 of mouse Bicaudal-D2 with an N-terminal SNAPf tag) (from UniProt Q921C5 1-400) (domain or fragment)
 |  | 9 | 4 | 3 | human cytoplasmic dynein-1 complex (recombinant, SNAPf tag on the heavy chain) (from UniProt Q14204 1-4646; O43237-1 1-492; P63172 1-113; P63167 1-89; Q9NP97-1 1-96)

Source: PMC5413349
